# Where a SMILES comes first, the peptide text is derived from it. The star is where a group is joined. Biotin = O=C1N[C@H]2[C@H](CS[C@H]2CCCCC(=O)*)N1; Ahx = NCCCCCC(=O)O
# T1: Biotin-Ahx-G-G-M-E-D-I-Y-F-E-F-M-G-G-K-K-K-amide (SEQ ID NO: 17)
# T1 chain: GGMEDIYFEFMGGKKK
# T2: Biotin-Ahx-(SEQ ID NO: 12)-amide
# T2 chain: RAHEEIYHFFFAKKK
# T3: Biotin-Ahx-(SEQ ID NO: 13)-amide
# T3 chain: RAHHEIYHFFFAKKK
# T4: Biotin-Ahx-(SEQ ID NO: 15)-amide
# T4 chain: RAHEEEYHFIFAKKK
# T5: Biotin-Ahx-(SEQ ID NO: 16)-amide
# T5 chain: RAHEEEYHFFFAKKK
# T6: Biotin-Ahx-(SEQ ID NO: 14)-amide
# T6 chain: RAHHEEYHFFFAKKK
# B1: ErbB-4 (protein)
# chain: RRKSIKKKRALRRFLETELVEPLTPSGTAPNQAQLRILKETELKRVKVLGSGAFGTVYKGIWVPEGETVKIPVAIKILNETTGPKANVEFMDEALIMASMDHPHLVRLLGVCLSPTIQLVTQLMPHGCLLEYVHEHKDNIGSQLLLNWCVQIAKGMMYLEERRLVHRDLAARNVLVKSPNHVKITDFGLARLLEGDEKEYNADGGKMPIKWMALECIHYRKFTHQSDVWSYGVTIWELMTFGGKPYDGIPTREIPDLLEKGERLPQPPICTIDVYMVMVKCWMIDADSRPKFKELAAEFSRMARDPQRYLVIQGDDRMKLPSPNDSKFFQNLLDEEDLEDMMDAEEYLVPQAFNIPPPIYTSRARIDSNRSEIGHSPPPAYTPMSGNQFVYRDGGFAAEQGVSVPYRAPTSTIPEAPVAQGATAEIFDDSCCNGTLRKPVAPHVQEDSSTQRYSADPTVFAPERSPRGELDEEGYMTPMRDKPKQEYLNPVEENPFVSRRKNGDLQALDNPEYHNASNGPPKAEDEYVNEPLYLNTFANTLGKAEYLKNNILSMPEKAKKAFDNPDYWNHSLPPRSTLQHPDYLQEYSTKYFYKQNGRIRPIVAENPEYLSEFSLKPGTVLPPPPYRHRNTVV
# Columns and labels:
# EGFR [1] = biological target: T7, EGFR (Homo sapiens, UniProt P00533); assay: Kinetic evaluation of peptide substrates, varying peptide at fixed ATP (phosphocellulose filter, [γ-33P]ATP); format: biochemical; conditions: ATP concentration >10 × Km (200 μM ATP); for Kcat: varying peptide, 10 minutes at 23° C.; for Km: Km for peptide
# Experimental: Peptide sequences identified as preferred substrates for ErbB-2 using the methods described in Laboratory Example 3 were synthesized. The kcat and Km values for each peptide were determined as follows, using the kinases ErbB-2, ErbB-4, and EGFR.
# Reactions were performed in 96-well polystyrene round bottom plates in a final volume of 45 μL. Reaction mixtures contained 50 mM MOPS, pH 7.5, 10 mM MnCl2, 1 mM dithiothreitol (DTT), 200 μM ATP, 1.0 μCi [γ-^33P] ATP, and varying concentrations of peptide. The reaction was initiated by adding the purified kinase of interest and halted after 10 minutes at 23° C. (room temperature) by adding 45 μL of 0.5% phosphoric acid in water. A 75 μL aliquot of the halted reaction mixture was then transferred to MAPH phosphocellulose filter plates (Millipore, Bedford, Mass.). The plates were filtered three times with 0.2 mL of 0.5 percent phosphoric acid. Scintillation cocktail (50 μL) was added to each well, and the plate was analyzed by counting in a Packard TOPCOUNT® scintillation counter (Packard Instrument Co., Meriden, Conn.). In these assays, the concentration of ATP was greater than ten-fold higher than the Km for ATP, which permitted the kinetic data to be treated as a pseudo-first-order reaction with varying peptide concentration. All experiments were performed in quadruplicate and the average value for each data point was analyzed. The Km and Vmax values were calculated by fitting the data to the Henri-Michaelis-Menten equation by non-linear regression using SIGMAPLOT® (SPSS Science, Chicago, Ill.). kcat values were calculated using the Vmax value, and are based on the protein concentration of the enzyme preparation and an estimate of purity determined from an evaluation of a Coomassie Blue stained SDS-polyacrylamide gel.
# EGFR [2] = biological target: T7, EGFR; assay: Two-substrate kinetic comparison with known substrate, peptide and ATP varied simultaneously; format: biochemical; conditions: peptide and ATP concentrations varied simultaneously, two-substrate fit
# Experimental: In a separate experiment, the kinetic parameters of both peptide number 1 shown in Table 2, and a peptide with the sequence Biotin-Ahx-G-G-M-E-D-I-Y-F-E-F-M-G-G-K-K-K-amide (SEQ ID NO: 17), which has been previously identified as an ErbB-2 substrate (Jan et. al., (2000), Biochemistry 39: 9786-803), were determined and compared. In this experiment, both peptide and ATP concentrations were varied, and the resulting data was simultaneously fit to an equation representing a two-substrate enzyme reaction using SIGMAPLOT®. Data was collected using the kinases ErbB-2, ErbB-4, and EGFR. The results of this experiment are shown in Table 3 and indicate that for all three kinases tested, peptide number 1 shown in Table 2 is kinetically at least equivalent (based on kcat/Km values) to the known peptide substrate identified by Jan et al.
# [3] = biological target: T1, Biotin-Ahx-G-G-M-E-D-I-Y-F-E-F-M-G-G-K-K …
# [4] = biological target: T2, Biotin-Ahx-(SEQ ID NO: 12)-amide
# [5] = biological target: T3, Biotin-Ahx-(SEQ ID NO: 13)-amide
# [6] = biological target: T4, Biotin-Ahx-(SEQ ID NO: 15)-amide
# [7] = biological target: T5, Biotin-Ahx-(SEQ ID NO: 16)-amide
# [8] = biological target: T6, Biotin-Ahx-(SEQ ID NO: 14)-amide
molecule,measurement,setting,value
"C[C@H](NC(=O)[C@H](CCCNC(=N)N)NC(=O)CCCCCNC(=O)CCCC[C@@H]1SC[C@@H]2NC(=O)N[C@@H]21)C(=O)N[C@@H](Cc1c[nH]cn1)C(=O)N[C@@H](CCC(=O)O)C(=O)N[C@@H](CCC(=O)O)C(=O)N[C@@H](CCC(=O)O)C(=O)N[C@@H](Cc1ccc(O)cc1)C(=O)N[C@@H](Cc1c[nH]cn1)C(=O)N[C@@H](Cc1ccccc1)C(=O)N[C@@H](Cc1ccccc1)C(=O)N[C@@H](Cc1ccccc1)C(=O)N[C@@H](C)C(=O)N[C@@H](CCCCN)C(=O)N[C@@H](CCCCN)C(=O)N[C@@H](CCCCN)C(N)=O [Peptide 5, Biotin-Ahx-(SEQ ID NO: 16)-amide] ({Biotin-Ahx}-RAHEEEYHFFFAKKK-NH2)",Kcat,EGFR [1],0.04 s⁻¹
same,Km,EGFR [1],7.5 µM
"CC[C@H](C)[C@H](NC(=O)[C@H](CC(=O)O)NC(=O)[C@H](CCC(=O)O)NC(=O)[C@H](CCSC)NC(=O)CNC(=O)CNC(=O)CCCCCNC(=O)CCCC[C@@H]1SC[C@@H]2NC(=O)N[C@@H]21)C(=O)N[C@@H](Cc1ccc(O)cc1)C(=O)N[C@@H](Cc1ccccc1)C(=O)N[C@@H](CCC(=O)O)C(=O)N[C@@H](Cc1ccccc1)C(=O)N[C@@H](CCSC)C(=O)NCC(=O)NCC(=O)N[C@@H](CCCCN)C(=O)N[C@@H](CCCCN)C(=O)N[C@@H](CCCCN)C(N)=O [Biotin-Ahx-(SEQ ID NO: 17)-amide, Biotin-Ahx-G-G-M-E-D-I-Y-F-E-F-M-G-G-K-K-K-amide, reference compound] ({Biotin-Ahx}-GGMEDIYFEFMGGKKK-NH2)",Kcat,EGFR [2],0.218 s⁻¹
same,Km,EGFR [2],899 µM
"CC[C@H](C)[C@H](NC(=O)[C@H](Cc1ccccc1)NC(=O)[C@H](Cc1c[nH]cn1)NC(=O)[C@H](Cc1ccc(O)cc1)NC(=O)[C@H](CCC(=O)O)NC(=O)[C@H](CCC(=O)O)NC(=O)[C@H](CCC(=O)O)NC(=O)[C@H](Cc1c[nH]cn1)NC(=O)[C@H](C)NC(=O)[C@H](CCCNC(=N)N)NC(=O)CCCCCNC(=O)CCCC[C@@H]1SC[C@@H]2NC(=O)N[C@@H]21)C(=O)N[C@@H](Cc1ccccc1)C(=O)N[C@@H](C)C(=O)N[C@@H](CCCCN)C(=O)N[C@@H](CCCCN)C(=O)N[C@@H](CCCCN)C(N)=O [Peptide 4, Biotin-Ahx-(SEQ ID NO: 15)-amide] ({Biotin-Ahx}-RAHEEEYHFIFAKKK-NH2)",Kcat,EGFR [1],0.0567 s⁻¹
same,Km,EGFR [1],10 µM
"C[C@H](NC(=O)[C@H](CCCNC(=N)N)NC(=O)CCCCCNC(=O)CCCC[C@@H]1SC[C@@H]2NC(=O)N[C@@H]21)C(=O)N[C@@H](Cc1c[nH]cn1)C(=O)N[C@@H](Cc1c[nH]cn1)C(=O)N[C@@H](CCC(=O)O)C(=O)N[C@@H](CCC(=O)O)C(=O)N[C@@H](Cc1ccc(O)cc1)C(=O)N[C@@H](Cc1c[nH]cn1)C(=O)N[C@@H](Cc1ccccc1)C(=O)N[C@@H](Cc1ccccc1)C(=O)N[C@@H](Cc1ccccc1)C(=O)N[C@@H](C)C(=O)N[C@@H](CCCCN)C(=O)N[C@@H](CCCCN)C(=O)N[C@@H](CCCCN)C(N)=O [Peptide 3, Biotin-Ahx-(SEQ ID NO: 14)-amide] ({Biotin-Ahx}-RAHHEEYHFFFAKKK-NH2)",Kcat,EGFR [1],0.108 s⁻¹
same,Km,EGFR [1],12.2 µM
"CC[C@H](C)[C@H](NC(=O)[C@H](CCC(=O)O)NC(=O)[C@H](Cc1c[nH]cn1)NC(=O)[C@H](Cc1c[nH]cn1)NC(=O)[C@H](C)NC(=O)[C@H](CCCNC(=N)N)NC(=O)CCCCCNC(=O)CCCC[C@@H]1SC[C@@H]2NC(=O)N[C@@H]21)C(=O)N[C@@H](Cc1ccc(O)cc1)C(=O)N[C@@H](Cc1c[nH]cn1)C(=O)N[C@@H](Cc1ccccc1)C(=O)N[C@@H](Cc1ccccc1)C(=O)N[C@@H](Cc1ccccc1)C(=O)N[C@@H](C)C(=O)N[C@@H](CCCCN)C(=O)N[C@@H](CCCCN)C(=O)N[C@@H](CCCCN)C(N)=O [Peptide 2, Biotin-Ahx-(SEQ ID NO: 13)-amide] ({Biotin-Ahx}-RAHHEIYHFFFAKKK-NH2)",Kcat,EGFR [1],0.252 s⁻¹
same,Km,EGFR [1],105 µM
"CC[C@H](C)[C@H](NC(=O)[C@H](CCC(=O)O)NC(=O)[C@H](CCC(=O)O)NC(=O)[C@H](Cc1c[nH]cn1)NC(=O)[C@H](C)NC(=O)[C@H](CCCNC(=N)N)NC(=O)CCCCCNC(=O)CCCC[C@@H]1SC[C@@H]2NC(=O)N[C@@H]21)C(=O)N[C@@H](Cc1ccc(O)cc1)C(=O)N[C@@H](Cc1c[nH]cn1)C(=O)N[C@@H](Cc1ccccc1)C(=O)N[C@@H](Cc1ccccc1)C(=O)N[C@@H](Cc1ccccc1)C(=O)N[C@@H](C)C(=O)N[C@@H](CCCCN)C(=O)N[C@@H](CCCCN)C(=O)N[C@@H](CCCCN)C(N)=O [Peptide 1, Biotin-Ahx-(SEQ ID NO: 12)-amide] ({Biotin-Ahx}-RAHEEIYHFFFAKKK-NH2)",Kcat,EGFR [1],0.102 s⁻¹
same,Km,EGFR [1],8 µM
same,Kcat,EGFR [2],0.0567 s⁻¹
same,Km,EGFR [2],128 µM
B1,Km,[3],144 µM
same,kcat,[3],0.0767 s⁻¹
same,kcat/Km,[3],533 M⁻¹ s⁻¹
same,Kcat,[4],0.0683 s⁻¹
same,kcat,[4],0.105 s⁻¹
same,"kinetic comparison with the known substrate (SEQ ID NO: 17), based on kcat/Km",[4],"for all three kinases tested, peptide number 1 shown in Table 2 is kinetically at least equivalent (based on kcat/Km values) to the known peptide substrate identified by Jan et al."
same,Kcat,[5],0.0767 s⁻¹
same,Km,[5],37.6 µM
same,kcat/Km,[5],2000 M⁻¹ s⁻¹
same,Kcat,[6],0.0217 s⁻¹
same,Km,[6],12.5 µM
same,kcat/Km,[6],1670 M⁻¹ s⁻¹
same,Kcat,[7],0.015 s⁻¹
same,Km,[7],6 µM
same,kcat/Km,[7],2500 M⁻¹ s⁻¹
same,Kcat,[8],0.065 s⁻¹
same,Km,[8],13.6 µM
same,kcat/Km,[8],4670 M⁻¹ s⁻¹
